According to the supplement of paper PMC10567573:

B1: PLD5 (parent)
chain: WIVDKQHVYIGSAGLDWQSLGQMK

Variants of: B1
Assay: protein stability index of a GFP-peptide fusion (GPS, HEK-293T) (PSI 1-6); higher = more stable
Settings: c terminus: a fixed tail appended
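Further: lentivirally expressed fusions sorted by FACS into six bins by GFP to DsRed ratio, PSI derived from sequencing read proportions per bin multiplied by bin number.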

Protein stability index: each site, then its substitutions
G11: T 1.71 | W 2.27 | Q 1.53 | Y 3.22 | D 1.46 | L 2.88
L15: T 2 | H 1.67 | Q 1.47 | W 1.51 | F 1.14
W17: H 2.35 | F 1.91 | V 2.24 | N 2.17 | L 1.64 | I 1.63
Q6: Y 1.41 | D 1.4 | M 2.63 | A 1.51 | P 1.5 | R 2.3 | S 1.37 | G 3.38
Q22: S 1.97 | V 1.79 | N 1.67 | T 2.97 | F 2.59 | E 1.59
S19: R 1.83 | M 1.7 | P 1.29 | H 1.81
V3: C 1.6 | R 1.52 | M 1.5 | L 2.01 | Y 1.56 | S 2.09 | Q 1.83 | T 1.59
I2: G 1.87 | Q 2.48 | W 1.86 | N 1.61 | L 1.88 | K 1.9 | A 2.32 | T 1.46 | Y 1.82 | R 2.17
W1: V 1.79 | H 2.12 | E 2.24 | Y 2.23 | M 1.43 | D 2.15 | P 2.32 | I 3.17 | N 2.19 | A 2.11
G14: Q 1.64 | H 2.29 | K 2.85 | D 2.12 | S 2.16 | T 1.25 | R 2.29
D16: T 3.02 | N 2.33 | Y 2.52 | S 2.26 | H 1.44 | Q 1.16 | R 1.4 | E 2.32
S12: K 2.07 | N 1.92 | G 1.72 | L 2.45 | Y 1.73 | A 1.65 | M 1.31 | F 3.2 | T 1.18
K24: L 2.68 | N 2.36 | V 2.15 | M 2.58 | S 3.37 | I 1.79
L20: D 1.96 | K 2.17 | C 2.05 | N 2 | R 2.13 | W 1.85 | A 1.65
Y9: N 1.81 | P 2.48 | K 1.33 | T 2.1 | I 1.45 | V 1.93 | D 1.91 | F 3.1
A13: F 2.5 | S 2.14 | Q 1.95 | N 2.11 | T 2.02 | C 2.08
D4: H 2.37 | K 4.58 | E 1.39 | M 2.12 | P 1.13 | V 3.83 | W 1.96 | N 3.09 | S 2.29
M23: W 2.19 | S 1.74 | K 1.69 | F 1.69 | I 2.15 | L 2.12 | G 1.9 | D 2.15
Q18: N 2.1 | L 2.15 | V 2.73 | E 1.6 | G 2.4 | K 1.61
V8: A 1.66 | R 4.04 | W 2.43 | M 2.45 | F 1.92 | N 2.01 | K 1.9 | E 2.01
H7: K 1.54 | T 2.26 | Q 1.96 | G 2.17 | W 3.59
G21: V 2.13 | E 1.25 | W 1.68 | R 1.86 | P 1.67
I10: E 2.22 | T 1.81 | Q 1.83 | Y 1.73
K5: Q 1.74 | W 2.34 | R 1.94 | T 2.98 | D 1.42 | N 2.12 | S 1.07 | F 4.11
